These results are taken from paper PMC5749889.

The experiment deals with light-harvesting complexes of G. phototrophica (light-harvesting antenna subunits, B868 inner ring and B816 outer ring) (G. phototrophica (endogenous in strain AP64)). The experiment in a line: negative-stain TEM with single particle analysis; freshly purified complexes on carbon-coated copper grids, 1.5% uranyl acetate, 200 kV, 2D class averages in RELION.

As to “light-harvesting complexes of G. phototrophica (light-harvesting antenna subunits, B868 inner ring and B816 outer ring)”, the stoichiometry N came out at 15.

Broadly, the stoichiometry N is a count of units in the complex or per binding partner.
